Test results from patent publication US20130287684A1 (SYMPHOGEN A S, published 2013).

Key:
human HER3 receptor = target: T1, human HER3 receptor (human, UniProt P21860 20-643); test: method not named there (Example 1: HER3 ELISA and confocal microscopy on MCF-7 cells)
T1 construct: also called ErbB3
Experimental: Briefly, Nunc Maxisorb plates (cat.#464718) were coated with 1 μg/ml HER3 protein (R&D Systems cat.#348-RB), diluted in PBS at 4° C. overnight. Prior to blocking in 50 μl 2% milk-PBS+0.05% Tween 20 the plates were washed once with PBS-T. The plates were washed once with PBS-T and 20 μl of 2% milk-PBS-T, and 10 μl supernatants from FreeStyle293 transfectants were added and incubated for 1 hour at room temperature, after which the plates were washed once with PBS-T, 20 μl per well. Secondary antibody (HRP-Goat-anti-human kappa light chain, Serotec, cat.# STAR 100P) diluted 1:25000 in 2% milk-PBS-T was added to detect the antibodies bound to the wells and incubated for 1 hour at room temperature. The plates were washed once in PBS-T before addition of 25 μl substrate (Kem-En-Tec Diagnostics, cat.#4518) that was incubated for 5 min. 25 μl 1M sulphuric acid was added after the incubation to stop the reaction. Specific signal was detected on an ELISA reader at 450 nm. From the ELISA data 480 positive antibody clones were identified and selected for sequence analysis and validation of binding to HER3.
The 119 clones were screened for binding to the HER3-overexpressing breast cancer cell line (MCF-7) using confocal microscopy. 10,000 MCF-7 cells were seeded into each well of 384-well cell carrier plates (Perkin Elmer, cat.#6007439) and allowed to attach overnight. The media was again discarded and the cells were washed and fixed with 2% formaldehyde solution (Aldrich cat.#533998). After washing, 40 μl of antibody supernatant was transferred to each well and plates were incubated for 2 hours, after which the media in the wells was discarded and 30 μl new media containing 2 μg/ml of Alexa-488 labelled goat anti-human IgG (H+L, Invitrogen cat.# A11013), 2 μg/ml CellMask Blue (Invitrogen cat.# H34558) and 1 μM Hoechst 33342 (Invitrogen cat.# H3570) was added to each well and plates were incubated for another 30 minutes. The level of fluorescence was then measured using an OPERA high throughput confocal microscope (Perkin Elmer).

[1] = target: T2, fully human HER3 ECD construct with N-terminal histidine tag (human, UniProt P21860 20-643); test: ELISA on coated His-tagged HER3 ECD constructs
T2 construct: extracellular domain; Transiently expressed in Hek 293 cells, purified on nickel NTA; also called fully human ECD construct
T2 sequence (P21860 20-643): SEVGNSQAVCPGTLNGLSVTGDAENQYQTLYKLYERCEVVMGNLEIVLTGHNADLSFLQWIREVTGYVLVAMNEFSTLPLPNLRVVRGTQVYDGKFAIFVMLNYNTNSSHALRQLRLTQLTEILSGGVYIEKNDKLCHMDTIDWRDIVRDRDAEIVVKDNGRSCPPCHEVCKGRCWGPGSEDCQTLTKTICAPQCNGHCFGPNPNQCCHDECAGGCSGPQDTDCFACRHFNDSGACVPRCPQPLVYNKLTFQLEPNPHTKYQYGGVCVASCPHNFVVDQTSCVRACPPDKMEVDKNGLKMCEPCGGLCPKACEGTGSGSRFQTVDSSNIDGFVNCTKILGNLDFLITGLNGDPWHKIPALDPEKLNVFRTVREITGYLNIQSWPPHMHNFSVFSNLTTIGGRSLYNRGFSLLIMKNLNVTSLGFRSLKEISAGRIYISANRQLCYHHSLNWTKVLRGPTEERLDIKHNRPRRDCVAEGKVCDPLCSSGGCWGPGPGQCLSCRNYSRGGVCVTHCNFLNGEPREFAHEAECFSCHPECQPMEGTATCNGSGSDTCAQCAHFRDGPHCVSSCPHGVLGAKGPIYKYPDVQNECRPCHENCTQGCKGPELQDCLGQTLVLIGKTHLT
From the text: Because the anti-HER3 antibody panel was raised in mice, antibodies are not expected to recognize epitopes present on murine HER3 due to the concept of “self tolerance”. Consequently, chimeric receptor constructs in which the human sequences coding for individual domains are replaced by murine sequences can be employed for epitope mapping purposes, since the antibodies are not expected to bind the murines sequence inserted in the human HER3 construct. Human and murine HER3 mRNA sequences (accession number M29366 and NM_{—}010153.1 respectively) were downloaded from NCBI, and extracellular domains I-IV were assigned as described by Kani et al. (J. Biol. Chem. (2005) 280:8238-8247). Chimeric human/murine domain exchange variants, in which each of the four human extracellular HER3 domains were replaced by the respective murine DNA sequence, were provided with an N-terminal histidine tag, gene synthesized and transiently expressed in Hek 293 cells. A fully human and a murine ECD construct were used as positive and negative controls, respectively. […] The next day wells were blocked with 1% BSA/PBS-T and titrations of antibodies diluted in blocking buffer were added. […]
The domain mapping of anti-HER3 antibodies is shown in FIGS. 27-32, which is a titration of anti-HER3 antibodies and negative controls against coated HER3 antigens. Bound antibody was detected with an anti-human Fc antibody. […]

T1 sequence (P21860 20-643 limits assumed): as the sequence (P21860 20-643) above

Row | Binder | binding result (human HER3 receptor) | binding result [1]
1 | antibody 4935 (antibody, human IgG1, kappa, V domains shown, Chimeric: murine variable regions, human kappa constant region, expressed as full-length IgG) VH: QIQLVQSGPELVKPGASVRISCKASGYTFTSYYIHWVKQRPGQGLEWIGWIYPGNVHTKYTEKFKGKATLTADKSSSTAYMHLSSLTSEDSAVYFCVRRYGYDGDWFAYWGQGTLVTVSS VL: DIQMTQSPASLAVSLGQRATISCRASESVDSYGNTFMHWYQQKPGQPPKLLIYRASNLESGIPARFSGSGSRTDFTLTINPVEADDVATYYCQQSNEDPWTFGGGTKLEIKR | binds | –
2 | antibody 4785 (antibody, human IgG1, kappa, V domains shown, Chimeric: murine variable regions, human kappa constant region, expressed as full-length IgG) VH: EVQLQQSGPELVMPGASVKISCKASGYSFTSYYVHWVKQRPGQGLEWIGWIYPGSGHTKYNEKFKDKATLTADTSSSTAYMQLSSLTSEDSAVYYCARPPYYSNYADVWGTGTTVTVSS VL: DIVMTQSPSSLTVTAGEKVTMSCKSSQSLLNSGNQKNYLTWYQQKPGQPPKLLIYWASTRESGVPDRFTGSGSGTDFTLTISSVQAEDLAVYYCQSDYSYPYTFGGGTKLEIKR | binds | –
3 | antibody 5143 (antibody, human IgG1, kappa, V domains shown, Chimeric: murine variable regions, human kappa constant region, expressed as full-length IgG) VH: QVQLQQSGPELVKPGASVKISCKASGYSFTSYYIHWVKQRPGQGLEWIGWIYPGSGHTKYNEKFKGKATLTADTSSSTAYMQLSSLTSEDSAVYYCARPPYYSNYADVWGTGTTVTVSS VL: DIVMTQSPSSLTVTAGEKVTMSCKSSQSLLNSGNQKNYMTWYQQKPGQSPKLLIYWASTRESGVPDRFTGSGSGTDFTLTISSVQAEDLAVYYCQNDYSYPYTFGGGTKLELKR | binds | –
4 | antibody 4889 (antibody, human IgG1, kappa, V domains shown, Chimeric: murine variable regions, human kappa constant region, expressed as full-length IgG) VH: EVQLVESGPGLVKPSQSLSLTCSVTGYSITSAYYWNWIRQFPGNKLEWMGYVSYDGSNTYNPSLKNRISITRDTSKNQFFLKLISLTTEDTATYYCAREGDYGYSDYWGQGTTLTVSS VL: DIVMTQSTSSLSASLGDRVTVSCRASQDISNYLNWYQQKPDGTIKLLIYYTSRLHSGVPSRFSGSGSGTDYSLTISNLDQEDIATYFCQQSNTLPWTFGGGTKLEIKR | binds | –
5 | antibody 5082 (antibody, human IgG1, kappa, V domains shown, Chimeric: murine variable regions, human IGHG1 and kappa constant regions; also called mAb 5082) VH: EVQLKESGPGLVKPSQSLSLTCSVTGYSITSAYYWNWIRQFPGNKVEWMGYIGYDGRNTYNPSLKNRISITRDTSKNQFFLKLNSLTTEDTATYYCSREGDYGYSDYWGQGTTLTVSS VL: DIVMTQATSSLSASLGDRVTVSCRASQDINNYLNWYQQKPDGTVKLLIYYTSRLQSGVPSRFSGSGSGIDYSLTISNLEQEDFVTYFCQQSETLPWTFGGGTKLELKR | binds | –
6 | antibody 5038 (antibody, human IgG1, kappa, V domains shown, Chimeric: murine variable regions, human kappa constant region, expressed as full-length IgG) VH: EVKLVESGPGLVKPSQSLSLTCSVTGYSITSGFYWTWIRQFPGNKLEWMGFISYDGSNNYNPSLKNRISITRDTSKNQFFLKLNSVTTEDTATYYCARGGGYYGNLFDYWGQGTTLTVSS VL: DIVMTQTTSSLSASLGDRVTISCRPSQDISNYVNWFQQKPGGTVKLLIFHTSRLHSGVPSRFSGSGSGTDYSLTISTLEQEDIAIYFCQQGITLPWTFGGGTKLEIKR | binds | –
7 | antibody 5259 (antibody, human IgG1, kappa, V domains shown, Chimeric: murine variable regions, human kappa constant region, expressed as full-length IgG) VH: EVQLVESGPGLVAPSQSLSITCTVSGFSLSRYTIHWVRQPPGKGLEWLGMIWGGGSTDYNSALKSRLSISKDNSKSQLFLKMNSLQTDDTAIYYCARKGITTTGFDYWGQGTTLTVSS VL: NIVLTQSPAIMSASPGEKVTMTCSASSSVSYMFWYQQKPGSSPRLLIYDTSNLASGVPVRFSGSGSGTSYSLTISRMEAEDAATYYCQQLNSYPPTFGGGTKLEIKR | binds | –
8 | antibody 5144 (antibody, human IgG1, kappa, V domains shown, Chimeric: murine variable regions, human kappa constant region, expressed as full-length IgG) VH: QVQLKESGPGLVAPSQSLSITCTVSGFSLSRYSVHWVRQPPGKGLEWLGMIWGGGSTDYNSALKSRLNINKDNSKSQVFFKMNSLQTDDTAMYYCVRKGITTTGFDYWGQGTTLTVSS VL: HIVLTQSPAIMSASPGEKVTMTCSASSSVSYMYWYQQKPRSSPRLLIYDTSNLASGVPVRFSGSGSGTSYSLTISRMEADDAATYYCQQLSSYPPTFGGGTKLELKR | binds | –
9 | antibody 5106 (antibody, human IgG1, kappa, V domains shown, Chimeric: murine variable regions, human kappa constant region, expressed as full-length IgG) VH: EVKLVESGGDLVKPGESLKLSCAASGFTFSSFAMSWVRQTPEKRLEWVATISDGGSHLYYPDNVKGRFTISRDNAKNNLYLQMSHLKSEDTAMYYCARGILDYWGQGTSVTVSS VL: DIVMTQATSSLSASLGDRVTISCSASQDINNYLNWYQQKPDGTIKLLIYYTSSLHSGVPSRFSGSGSGTDYSLTISNLEPEDIATYYCQQYSRIPYTFGGGTKLEIKR | binds | binds
10 | antibody 5101 (antibody, human IgG1, kappa, V domains shown, Chimeric: murine variable regions, human kappa constant region, expressed as full-length IgG) VH: EVKLVESGGGLVKPGGSLKLSCAASGFTFSSYGMSWVRQTPEKRLEWVATIRDGGGYTYYSDNVKGRFTISRDNAQNNLYLQMSHLKSEDTAMYYCARGILDYWGQGTSVTVSS VL: QIVLTQSPSSLSASLGDRVTISCRASQDISNYLNWFQQRPDGTVKLLIYYTSRLHSGVPSRFSGSGSGTDYSLTISNLEQEDIATYFCQQGNTLPYTFGGGTKLELKR | binds | binds
